The supplement of paper PMC12764529
± gives the half width of the 95% confidence interval.

How the values were obtained:
[1] = folding stability dG unfold from trypsin proteolysis; higher = more stable
In short: (§1)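 Only designs with AlphaFold2 dimer inter-PAE above 15 were retained; each was a mini-protein under 80 residues with no cysteine, in a PA-tagged cDNA display construct. After digestion with trypsin and chymotrypsin and sequencing, K50 was inferred by Bayesian fitting of counts, and unfolding free energy was derived per protease or combined against a sequence-predicted unfolded-state K50 and a shared folded-state K50.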

[2] = folding stability dG unfold from chymotrypsin proteolysis; higher = more stable
In short: as §1

[3] = folding stability dG unfold (combined trypsin and chymotrypsin); higher = more stable
In short: as §1

| Sequence | folding stability dG unfold [1] [kcal/mol] | folding stability dG unfold [2] [kcal/mol] | folding stability dG unfold [3] [kcal/mol] |
| --- | --- | --- | --- |
| SAGGSAPEPVEFTLGHPDGVPYRVTLTRLPDTDLYLVTVEFPGPEVTFTGVAPLEVLENIPGLTPVSAGGSA [r15_622_TrMRF] | 1.53 ± 0.035 | 1.88 ± 0.09 | 1.72 ± 0.068 |
| SAGGSATLKEIAKEIEKTVKPKYAKKLAKTIEEAVKKGYEIKKIIIEKPKDDSFKATIYLKKPNDPSAGGSA [r15_613_TrMRF] | 0.676 ± 0.14 | 0.294 ± 0.45 | 0.66 ± 0.27 |
| SAGGSAGGSAGGMNPIVIKKTYPVKSGSFTVTLPEGVTPVSFEKDPNSDTITIEVLVEPSAGGSAGGSAGGS [r10_906_JUSTAS] | 0.63 ± 0.067 | -0.713 ± 0.37 | 0.0999 ± 0.3 |
| SAGGGSMTTVRLTREINLPSSVSDEEIIEEIKEELPENYEILEVKIEKDPKTGKYYIEAEVKIPKLGSAGGS [r16_396_JUSTAS] | 0.904 ± 0.027 | 2.269 ± 0.02 | 1.88 ± 0.056 |
| SAMVYEFPFETEEEAREKAREVLLEKLGASPEEEKVELDIEIEIREDPETGKKLATVTVPKVTVSPKKSSAG [r14_467_JUSTAS] | 0.0292 ± 0.11 | 0.411 ± 0.099 | 0.318 ± 0.086 |
| SAGGAPSSSPIPIDLGDPNDEEKLKAEVEAIEKEYAAKGVTPITVERVGENKYRIKIPTGGVATVALSAGGS [r16_703_JUSTAS] | -0.55 ± 0.11 | -0.0876 ± 0.12 | -0.169 ± 0.12 |
| SAGGGHMMPNITVDVEEEVFTLPDGSILTRTTVTVTLPNGKKTTVETEYFYDTKTGTVSSKVVKVEASAGGS [r16_166_JUSTAS] | 2.72 ± 0.11 | 3.45 ± 0.082 | 3.17 ± 0.1 |
| SAGGREITIMIWMPLEDMEEFANEIANALAAEGYKVKDIEIQFKVIPDPENGRPWVMFMIEVEIEPPSAGGS [r8_475_TrROS] | 2.96 ± 0.19 | 4.717 ± 0.044 | 4.27 ± 0.1 |
| SAGGSAGGSAGGAELLPSDVLKFTLTIQPDLKGSPPIIVEVTISVPPEVLEKPEIEVSLSAGGSAGGSAGGS [r10_672_JUSTAS] | 2.12 ± 0.15 | 2.87 ± 0.093 | 2.7 ± 0.15 |
| SAGGSAGGSSSVTPVPETTLVTLTPPDGSPPVLGTVFPATGTMLLFYPDSVLLLPLGPGTTLFSAGGSAGGS [r12_536_JUSTAS] | 0.888 ± 0.034 | 0.503 ± 0.08 | 0.82 ± 0.079 |
| SAGSSLRLELDLEVTLYAPVVSVRPDGSLSLVPGSTRPIPVRLRVTFELTLDPDNPLNVSINVDIEADFSAG [r14_274_TrMRF] | 4.1 ± 0.076 | 5.9 ± 0.081 | > 6 |
| SAGGIIPIENASWDELLNALKEAAEKGDPNVTITFQDPGRPYWIQIDPDENNIEVEHPNGETWRFKISAGGS [r16_481_TrROS] | 0.749 ± 0.089 | 0.995 ± 0.14 | 0.905 ± 0.18 |
| SAGGSAGGSEEREYVEVEFEFLARLEDGSLLVTRVRLLLPAEPAELRPEVRSEVLPLAPGEELSAGGSAGGS [r12_811_TrMRF] | 1.48 ± 0.071 | 2.7 ± 0.063 | 2.22 ± 0.16 |
| SAGGSAGGSMADITITVTDPATGATRTFPHSVSLEEILAEHPGPVTVTIETPTSTTTLQVPRESAGGSAGGS [r12_1056_JUSTAS] | 0.884 ± 0.03 | 0.0731 ± 0.084 | 0.542 ± 0.056 |
| SAVPLSEEELEALLEEKAKEKAEEILKENPELPPGAVIKIKVEYEQEVVLEDKVEPVKYEREVEYKVPLSAG [r14_486_JUSTAS] | 0.00158 ± 0.12 | -0.503 ± 0.76 | -0.0614 ± 0.44 |
| KAYKVVFPLPKEGRTVVVYVPEEHGKPLTEEEIAALLREAYPDKEPADLPAEELAKILAAKEGVVRVEVEGS [r1_463_TrMRF] | 0.866 ± 0.089 | 0.995 ± 0.12 | 1 ± 0.13 |
| SAGGSAGGSAMVILTPDGYLKVIKSITVEEALDPETDEPVLDVKAEVEVIPLPSLDDPAFKESAGGSAGGSA [r18_6_TrMRF] | 0.251 ± 0.076 | 0.447 ± 0.087 | 0.396 ± 0.24 |
| SAGGKVEVELEDGKLRVKVFDKNGKLVEEVEVELKPVTIVIPGLSEEELQELKEKFPGAKITILEGQKSAGG [r13_235_TrROS_Hall] | 1.73 ± 0.063 | 2.87 ± 0.08 | 2.39 ± 0.11 |
| SAGGSAGGSAPWYIAIYMPGNGRKRTYPFKSADDIKEEIKEHLGPGMNPDNVEIKIIPPDDISAGGSAGGSA [r18_350_TrROS] | 0.279 ± 0.14 | -0.782 ± 0.81 | -0.0945 ± 0.38 |
| SAGGSAGGSAGGPNPDMKFEIVTIKVPPDEVPKSEPIEDPDGHNFFLHFDGNTYTIWRMDSAGGSAGGSAGG [r7_97_TrROS] | 0.987 ± 0.086 | 1.39 ± 0.42 | 0.933 ± 0.23 |
| SSMTLVTVEMEITLRTPEGGSETLKRTFEREVSPDDPAAVEAAVEAAKEEIREAHPDVVEVRVVKVDTALSA [r9_436_JUSTAS] | 4.06 ± 0.089 | 4.459 ± 0.039 | 4.41 ± 0.046 |

| Sequence | folding stability dG unfold [1] [kcal/mol] | folding stability dG unfold [2] [kcal/mol] | folding stability dG unfold [3] [kcal/mol] |
| --- | --- | --- | --- |
| SAGGAPGVPSVTVIPFDPSTGRALALVVDGDRVYVISSAVPLEVLRELGVDRVEPLPDGTLVAVSLASAGGS [r8_382_TrMRF] | 1.13 ± 0.02 | 1.49 ± 0.027 | 1.38 ± 0.041 |
| SMKITIVNKNGEKKEIEVTAKDGKKYKITVFKDKELVIKVEETTPDGKKKPVKVIKAKSLEEALEALKKASA [r9_942_TrROS_Hall] | 2.17 ± 0.14 | 2.83 ± 0.057 | 2.38 ± 0.32 |
| SAGGSAEEEVETVTLTVTVTVPPAPEVEVVSVEVERLPDGTLRVRAVVRLKDVPDRFVEVELTIRPSAGGSA [r15_627_TrROS_Hall] | 3.41 ± 0.12 | 2.95 ± 0.042 | 3.18 ± 0.16 |
| SAGGSAGGSPKWKTIEITVLVPGMPAEEIAKNIANNFGIEITDIDVQLFPNGWVVVSATIRVKSAGGSAGGS [r12_359_TrROS] | 2.59 ± 0.087 | 3.16 ± 0.051 | 2.99 ± 0.096 |
| SFKLPPGQEIKVKIFILFVDPGDGRMYFIKIEYEITIKPDDDGNLDLDIEPTNIEVVGPMPADEAKEFFKSA [r9_423_TrROS] | 2.47 ± 0.086 | 2.54 ± 0.16 | 2.34 ± 0.25 |
| SATFRLPNGKTISIMAPLPPGEMTPDQVISMARMIVRNIFPPGKKVEVKIEVEQYPNGMVHVKIPIKAESAG [r14_389_TrROS] | 0.0799 ± 0.31 | 0.312 ± 0.28 | 0.406 ± 0.4 |
| SAGGSMVRVTIEDKDGKEHWIMIPPGMDPNDVKQQIKKFLEDNGWKVKDVEVETYPPGWAMIRVRVSAGGSA [r2_148_TrROS] | 1.88 ± 0.021 | 2.33 ± 0.031 | 2.2 ± 0.052 |
| SAMLPSIIIAKAKEAIEKSGKPVPVVIKIPVYKKENGPPVSLEKAKEIFEKLKEAFPDVPIIIELEEPESAG [r14_636_TrMRF] | 0.875 ± 0.011 | 0.539 ± 0.034 | 0.766 ± 0.048 |
| SAGMVITISSDLSPEEVLATAQALAAELGAKKVEVERDPANPDVVTVTVEFPGLGKTVTVNVLPPELLESAG [r5_912_JUSTAS] | 1.28 ± 0.059 | 1.78 ± 0.065 | 1.57 ± 0.15 |
| SAGGSAGGSAGGDSNVDNFTLMFPWGWVVKIDITYTDGGLETDWEIIEPVPPLPPDDKNKSAGGSAGGSAGG [r7_845_TrROS] | 1.6 ± 0.081 | 3.54 ± 0.037 | 2.77 ± 0.12 |
| SAMSEKDMEPIETFELPETNVKIELYYNKKTKKYVIKIKNKKTKKTKTIVIKSKDGKITLEELKKLIKKSAG [r14_948_TrROS_Hall] | 2.93 ± 0.24 | 3.42 ± 0.077 | 3.61 ± 0.31 |
| SSPKILTESELKITIPMTDPETGKPINLEVTIPLLVDPATGTVEVLEIKITGPEEVQEILKKLIEKLIKESA [r9_619_JUSTAS] | 2.14 ± 0.23 | 2.15 ± 0.12 | 2.11 ± 0.22 |
| SAMYVRITVTFETPDGTRTVTIEIPPSEVEAGKPLSEEELKALAEEIAAKDPNATITEITIERFPESLESAG [r14_373_JUSTAS] | 4.29 ± 0.11 | 3.865 ± 0.037 | 3.99 ± 0.075 |
| SAGGGMSTTTETTIRIYVKDPQGNPVFVAELTVTVTTSPSGEVTIHLPPEFLKALPPNYTIAKIEVTSAGGS [r16_295_JUSTAS] | 3.94 ± 0.21 | 4.13 ± 0.086 | 4.06 ± 0.083 |
| SAGGKLTELIRSLFEKLNVPLEPLETGPNSAIFRFPGKPGVFELPGNSRIVIFEDGLVVVVAPPNDLSAGGS [r8_297_TrMRF] | 1.51 ± 0.1 | 1.57 ± 0.093 | 1.61 ± 0.081 |
| SAGGSAGGSPMKIEAVELEDGTVAYRLEDGTVLLVTKNEDGTYTVKVFKNGKLVEEKEIKLPPSAGGSAGGS [r12_451_TrROS_Hall] | 2.28 ± 0.069 | 3.277 ± 0.03 | 2.99 ± 0.071 |
| SAGGSAGGSAGGAAPNTFKVRLELKVKVEKRTYKNEDGSTYEVDSISVELKIEIEPLPDSAGGSAGGSAGGS [r10_1212_TrROS_Hall] | 3.85 ± 0.19 | 5.69 ± 0.2 | 5.66 ± 0.51 |
| SAGGIVEEAIKKLFESGIPLSEEEIKEIIEKAIKEENEKKGKKIEKIEIGEIKFNPETGYAPIKIKASAGGS [r16_365_TrMRF] | -0.383 ± 0.48 | 1.44 ± 0.13 | 0.856 ± 0.83 |
| SAMKIAKVTYEPVKVDGKELLLFKVEIVHSETGEKEEKTFLTEDPEDFIENLLKHPDIDIVEILEFKEGSAG [r14_464_TrMRF] | 2.32 ± 0.13 | 3.43 ± 0.066 | 3.21 ± 0.083 |
| SAGGSAGGSAGDPKKKPPKPILGFELAEFEITTEDGTKYKVKALIIYFPDTGTKVIFVLGSAGGSAGGSAGG [r11_1024_TrMRF] | 2.78 ± 0.13 | 4.73 ± 0.13 | 4.33 ± 0.18 |
| SAGGSAGGSAGGSGSSVLVKTTTTLSVAPGATITLPDGTVYTVPAGVPVTVTTWVLVETSAGGSAGGSAGGS [r4_232_JUSTAS] | 2.31 ± 0.14 | 4.05 ± 0.092 | 3.38 ± 0.13 |
